Source: the RNAGym collection of RNA variant scans (doi:10.1021/acssynbio.7b00057)

B1: Pistol ribozyme (parent)
chain: GGGUCGUUGUUCCAUAAUCGCGUGGAUAUGGCACGCAAGUUUCUACCGGGCACCGUAAAUGUCCGACUGGAGCCGUUCGGGCGGCUAUAAACAGACCUCAGGCCCGAAGCGUGGCGGCACCUGCCGCCGGUGGUAAAAAAGAUCGGAAGAGCACACGUCU

Variants of: B1
Experiment: aptazyme ON/OFF ratio, guanine; higher = stronger switching; co-transcriptional cleavage with and without guanine

With GGGUCGAACGUUUAUAAUCGCGUGGAUAUGGCACGCAAGUUUCUACCGGGCACCGUAAAUGUCCGACUGGAGCCGUUCGGGCGGCUAUAAACAGACCUCAGGCCCGAAGCGUGGCGGCACCUGCCGCCGGUGGUAAAAAAGAUCGGAAGAGCACACGUCU as the variant, how does the “aptazyme ON/OFF ratio” value read?
Its value is 1.32.

For GGGUCGAACGUUGAUAAUCGCGUGGAUAUGGCACGCAAGUUUCUACCGGGCACCGUAAAUGUCCGACUGGAGCCGUUCGGGCGGCUAUAAACAGACCUCAGGCCCGAAGCGUGGCGGCACCUGCCGCCGGUGGUAAAAAAGAUCGGAAGAGCACACGUCU, which “aptazyme ON/OFF ratio” value is on record?
Its value is 1.19.

Which “aptazyme ON/OFF ratio” value does the source give for GGGUCGAACGUUAAUAAUCGCGUGGAUAUGGCACGCAAGUUUCUACCGGGCACCGUAAAUGUCCGACUGGAGCCGUUCGGGCGGCUAUAAACAGACCUCAGGCCCGAAGCGUGGCGGCACCUGCCGCCGGUGGUAAAAAAGAUCGGAAGAGCACACGUCU here?
The value was 1.22.

With GGGUCGAACGUCUAUAAUCGCGUGGAUAUGGCACGCAAGUUUCUACCGGGCACCGUAAAUGUCCGACUGGAGCCGUUCGGGCGGCUAUAAACAGACCUCAGGCCCGAAGCGUGGCGGCACCUGCCGCCGGUGGUAAAAAAGAUCGGAAGAGCACACGUCU as the variant, how does the “aptazyme ON/OFF ratio” value read?
The value was 1.56.

For GGGUCGAACGUCAAUAAUCGCGUGGAUAUGGCACGCAAGUUUCUACCGGGCACCGUAAAUGUCCGACUGGAGCCGUUCGGGCGGCUAUAAACAGACCUCAGGCCCGAAGCGUGGCGGCACCUGCCGCCGGUGGUAAAAAAGAUCGGAAGAGCACACGUCU, which “aptazyme ON/OFF ratio” value is on record?
The value was 1.24.

Which “aptazyme ON/OFF ratio” value does the source give for GGGUCGAACGUCGAUAAUCGCGUGGAUAUGGCACGCAAGUUUCUACCGGGCACCGUAAAUGUCCGACUGGAGCCGUUCGGGCGGCUAUAAACAGACCUCAGGCCCGAAGCGUGGCGGCACCUGCCGCCGGUGGUAAAAAAGAUCGGAAGAGCACACGUCU here?
The value was 1.29.

For GGGUCGAACGAACAUAAUCGCGUGGAUAUGGCACGCAAGUUUCUACCGGGCACCGUAAAUGUCCGACUGGAGCCGUUCGGGCGGCUAUAAACAGACCUCAGGCCCGAAGCGUGGCGGCACCUGCCGCCGGUGGUAAAAAAGAUCGGAAGAGCACACGUCU, which “aptazyme ON/OFF ratio” value is on record?
The value was 1.29.

Which “aptazyme ON/OFF ratio” value does the source give for GGGUCGAACGUGAAUAAUCGCGUGGAUAUGGCACGCAAGUUUCUACCGGGCACCGUAAAUGUCCGACUGGAGCCGUUCGGGCGGCUAUAAACAGACCUCAGGCCCGAAGCGUGGCGGCACCUGCCGCCGGUGGUAAAAAAGAUCGGAAGAGCACACGUCU here?
Its value is 1.22.

Which “aptazyme ON/OFF ratio” value does the source give for GGGUCGAACGUGUAUAAUCGCGUGGAUAUGGCACGCAAGUUUCUACCGGGCACCGUAAAUGUCCGACUGGAGCCGUUCGGGCGGCUAUAAACAGACCUCAGGCCCGAAGCGUGGCGGCACCUGCCGCCGGUGGUAAAAAAGAUCGGAAGAGCACACGUCU here?
Its value is 1.22.

For GGGUCGAACGUGGAUAAUCGCGUGGAUAUGGCACGCAAGUUUCUACCGGGCACCGUAAAUGUCCGACUGGAGCCGUUCGGGCGGCUAUAAACAGACCUCAGGCCCGAAGCGUGGCGGCACCUGCCGCCGGUGGUAAAAAAGAUCGGAAGAGCACACGUCU, which “aptazyme ON/OFF ratio” value is on record?
The value was 1.11.

For GGGUCGAACGACCAUAAUCGCGUGGAUAUGGCACGCAAGUUUCUACCGGGCACCGUAAAUGUCCGACUGGAGCCGUUCGGGCGGCUAUAAACAGACCUCAGGCCCGAAGCGUGGCGGCACCUGCCGCCGGUGGUAAAAAAGAUCGGAAGAGCACACGUCU, which “aptazyme ON/OFF ratio” value is on record?
Its value is 1.06.

For GGGUCGAACGUGCAUAAUCGCGUGGAUAUGGCACGCAAGUUUCUACCGGGCACCGUAAAUGUCCGACUGGAGCCGUUCGGGCGGCUAUAAACAGACCUCAGGCCCGAAGCGUGGCGGCACCUGCCGCCGGUGGUAAAAAAGAUCGGAAGAGCACACGUCU, which “aptazyme ON/OFF ratio” value is on record?
Its value is 1.33.

With GGGUCGAACGUACAUAAUCGCGUGGAUAUGGCACGCAAGUUUCUACCGGGCACCGUAAAUGUCCGACUGGAGCCGUUCGGGCGGCUAUAAACAGACCUCAGGCCCGAAGCGUGGCGGCACCUGCCGCCGGUGGUAAAAAAGAUCGGAAGAGCACACGUCU as the variant, how does the “aptazyme ON/OFF ratio” value read?
The value was 1.1.

With GGGUCGAACGUUCAUAAUCGCGUGGAUAUGGCACGCAAGUUUCUACCGGGCACCGUAAAUGUCCGACUGGAGCCGUUCGGGCGGCUAUAAACAGACCUCAGGCCCGAAGCGUGGCGGCACCUGCCGCCGGUGGUAAAAAAGAUCGGAAGAGCACACGUCU as the variant, how does the “aptazyme ON/OFF ratio” value read?
Its value is 1.41.

With GGGUCGAACGUCCAUAAUCGCGUGGAUAUGGCACGCAAGUUUCUACCGGGCACCGUAAAUGUCCGACUGGAGCCGUUCGGGCGGCUAUAAACAGACCUCAGGCCCGAAGCGUGGCGGCACCUGCCGCCGGUGGUAAAAAAGAUCGGAAGAGCACACGUCU as the variant, how does the “aptazyme ON/OFF ratio” value read?
The value was 2.69.

Which “aptazyme ON/OFF ratio” value does the source give for GGGUCGAACGUAGAUAAUCGCGUGGAUAUGGCACGCAAGUUUCUACCGGGCACCGUAAAUGUCCGACUGGAGCCGUUCGGGCGGCUAUAAACAGACCUCAGGCCCGAAGCGUGGCGGCACCUGCCGCCGGUGGUAAAAAAGAUCGGAAGAGCACACGUCU here?
Its value is 1.09.

With GGGUCGAACGUAAAUAAUCGCGUGGAUAUGGCACGCAAGUUUCUACCGGGCACCGUAAAUGUCCGACUGGAGCCGUUCGGGCGGCUAUAAACAGACCUCAGGCCCGAAGCGUGGCGGCACCUGCCGCCGGUGGUAAAAAAGAUCGGAAGAGCACACGUCU as the variant, how does the “aptazyme ON/OFF ratio” value read?
Its value is 1.18.

For GGGUCGAACGUAUAUAAUCGCGUGGAUAUGGCACGCAAGUUUCUACCGGGCACCGUAAAUGUCCGACUGGAGCCGUUCGGGCGGCUAUAAACAGACCUCAGGCCCGAAGCGUGGCGGCACCUGCCGCCGGUGGUAAAAAAGAUCGGAAGAGCACACGUCU, which “aptazyme ON/OFF ratio” value is on record?
Its value is 1.27.
